Laboratory results published in the supplement of paper PMC9170038.

Test system: MS2 coat protein
Experiment: apparent KD of MS2 coat protein; designed switch direction (-1 OFF switch, 1 ON switch): -1; higher = weaker reporter binding
Procedure, shortened: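 Apparent KD, taken as the median over clusters for each design, was obtained by curve-fitting normalised cluster fluorescence. Designed RNA switches had been transcribed on Illumina chips by stalled E. coli RNA polymerase and titrated with SNAP-549-labelled MS2 coat protein, doubling from 0.7 or 1.5 nM to 3 µM.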

[1] = Eterna round: R95, input ligand: FMN 200 uM
[2] = Eterna round: R95, input ligand: microRNA oligo, concentration not stated
[3] = Eterna round: R95, input ligand: none
[4] = input ligand: microRNA oligo, concentration not stated

UGAUUGAUUAACAGAUUAUACAUGAGGAUCACCCAUGUAGGUCCUACGUGCCCUUUAAGCAGCUCGUCUUAUUCCCA [Sensor-V1 #69] (Eterna round: R97, puzzle: Sensor, turn-off variant 1)
apparent KD of MS2 coat protein (input ligand: FMN 200 uM): 43.7 nM
apparent KD of MS2 coat protein (input ligand: none): 45.6 nM

ACAACAAGCUUUUUGAACGUAGAACAUGCAGCUCUAGAAACAUGAGGAUCACCCAUGUAAGCCAGUUAGAUAGGUGA [JR_SV3TOV2_Sub067] (puzzle: Sensor v3, turn-off variant 2)
apparent KD of MS2 coat protein [1]: 76.1 nM
apparent KD of MS2 coat protein [2]: 69.1 nM
apparent KD of MS2 coat protein [3]: 89.5 nM

UAUAUGUCAGGAUAUUAGUAGUAAAUGAAUAAAAUUAUUACUGAGAAGGGACAUGAGGAUCACCCAUGUGCCUU [Mat - Exclusion 4 - Eli Mod - D23] (Eterna round: R97, puzzle: Exclusion 4)
apparent KD of MS2 coat protein (input ligand: FMN 200 uM): 20.6 nM
apparent KD of MS2 coat protein (input ligand: none): 16.6 nM

GGAUCGAGUGUGAGGAUAUGCUGGUCCUUGGAUCAGCAGAAGGCACAUGAGGAUCACCCAUGUGAAUACGGUCC [JL bmx4 3.15] (puzzle: Brourd's mod of Exclusion 4)
apparent KD of MS2 coat protein [2]: 23.8 nM

UUAUUGUAUGUAGGAUAUGCAUAUUAUUAUUAUGCAGAAGGACAUGAGGAUCACCCAUGUAUAUUAUUAUUAUAUAUUAUAUAU [Title] (Eterna round: R96, puzzle: Exclusion NG 1)
apparent KD of MS2 coat protein [4]: 24.6 nM

CUCUAGAAAGGAUAUACAUGAGGAUCACCCAUGUCCACGCCAUAACCGAGUGCCAUCUGUAGAAGGUUCAGAGU [Eternabot (L1) Solution 96] (Eterna round: R97, puzzle: Exclusion 3)
apparent KD of MS2 coat protein (input ligand: FMN 200 uM): 52.5 nM
apparent KD of MS2 coat protein (input ligand: none): 29.2 nM

GCACGGAGUGUAGGAUAUCUGUGCGAUUAGCUCAGAGAAGGACACAUGAGGAUCACCCAUGUGUACCUCAACACUAAUCCGUGC [Eli exng1 - 076] (Eterna round: R96, puzzle: Exclusion NG 1)
apparent KD of MS2 coat protein (input ligand: FMN 200 uM): 10.5 nM
apparent KD of MS2 coat protein [4]: 8.88 nM
apparent KD of MS2 coat protein (input ligand: none): 10.1 nM

UAGGAGUCAGGAUAUGCGAGAGAUUGAAGUAUGGGAUGUGAGCAGAAGGGACAUGAGGAUCACCCAUGUAUGGA [JR_Exclu4_Sub093] (puzzle: Exclusion 4)
apparent KD of MS2 coat protein [2]: 146 nM

GCACGGAUGGUAGGAUAUCUGUGCGAUUAGCUCAGAGAAGGACCACAUGAGGAUCACCCAUGUACCUCAAUUAGCCUUCCGUGC [Eli exng1 - 019] (Eterna round: R96, puzzle: Exclusion NG 1)
apparent KD of MS2 coat protein (input ligand: FMN 200 uM): 14.8 nM
apparent KD of MS2 coat protein [4]: 11.3 nM
apparent KD of MS2 coat protein (input ligand: none): 15.2 nM

AAGCAGCGAGGAUAUGCUUGCGCGUGUCCUAGUUGAAAUAAACUUGAGGAUCACCCAAGUAGAAGGCGCAACCC [EX2 #42] (Eterna round: R97, puzzle: Exclusion 2)
apparent KD of MS2 coat protein (input ligand: FMN 200 uM): 197 nM
apparent KD of MS2 coat protein (input ligand: none): 41.9 nM

AGCCCUGGCGUCAGGAUAUCGAAACCGCAAAAGGACGAGAAGGGACAUGAGGAUCACCCAUGUAGUGAGUUAAA [Isedrecedi] (puzzle: Brourd's mod of Exclusion 4)
apparent KD of MS2 coat protein [1]: 35.6 nM
apparent KD of MS2 coat protein [2]: 34.5 nM
apparent KD of MS2 coat protein [3]: 39 nM

GCAGAAAGUGUAGGAUAUAGAUAUUAGCGGAAACGCAAUACAUGAGGAUCACCCAUGUUUCCUCACUAGAAGGGCAAAAGCUGC [EXNG2 V2 d] (Eterna round: R96, puzzle: Exclusion NG 2)
apparent KD of MS2 coat protein (input ligand: FMN 200 uM): 18.7 nM
apparent KD of MS2 coat protein [4]: 12.5 nM
apparent KD of MS2 coat protein (input ligand: none): 17.2 nM

UAGUUAAACACAGGAUAUCGCCUCUUAUUACAUGAGGAUCACCCAUGUUUAGUUAGUUACAUGUUCGAGAAGGGUGAAGUAGUU [JR_ExcNG2_Sub041] (Eterna round: R96, puzzle: Exclusion NG 2)
apparent KD of MS2 coat protein (input ligand: FMN 200 uM): 793 nM
apparent KD of MS2 coat protein [4]: 1300 nM
apparent KD of MS2 coat protein (input ligand: none): 555 nM

AAAAAGGUAGGAUAUACGAAAAAAAAGGGUAGAAAAAAAACACAUGAGGAUCACCCAUGUAGAAGGACCAAAAG [salish99_ex2_r3_045] (puzzle: Exclusion 2)
apparent KD of MS2 coat protein [1]: 58.7 nM
apparent KD of MS2 coat protein [2]: 32 nM
apparent KD of MS2 coat protein [3]: 28.4 nM

CGCGCGCGUGUAGGAUAUGUGUUUGGUUCGGGCGCAGAAGGACAUGAGGAUCACCCAUGUGUGUGUGUGCGCGCAGUGUGUGCG [-30, -27 kcal, 15% A] (Eterna round: R96, puzzle: Exclusion NG 1)
apparent KD of MS2 coat protein (input ligand: FMN 200 uM): 55 nM
apparent KD of MS2 coat protein [4]: 32.7 nM
apparent KD of MS2 coat protein (input ligand: none): 41.7 nM

GCUAGGAAUGUCAGGAUAUGCAGAUCCUUGGAUCUGCAGAAGGGACAUGAGGAUCACCCAUGUGCUAACCUAGC [Mat - Exclusion 4 - JL Mod - D7] (Eterna round: R97, puzzle: Brourd's mod of Exclusion 4)
apparent KD of MS2 coat protein (input ligand: FMN 200 uM): 110 nM
apparent KD of MS2 coat protein (input ligand: none): 24.3 nM

GUCCUCAUGACAUGAGGAUCACCCAUGUAUUAUUUGUUAACUGAGGAUAUACUCUUAUUUUUUAUGUAGAAGGCAGAUUUGUUC [JR_ExcNG3_Sub021] (Eterna round: R96, puzzle: Exclusion NG 3)
apparent KD of MS2 coat protein (input ligand: FMN 200 uM): 43.1 nM
apparent KD of MS2 coat protein [4]: 27.7 nM
apparent KD of MS2 coat protein (input ligand: none): 31.2 nM

UUGUUAUAUGUAGGAUAUGCGUGUUGUUAUUAGGCAGAAGGACAUGAGGAUCACCCAUGUAUGUUGUUGUUAUAUAUUAUAUAU [Title] (Eterna round: R96, puzzle: Exclusion NG 1)
apparent KD of MS2 coat protein (input ligand: FMN 200 uM): 56.3 nM
apparent KD of MS2 coat protein [4]: 28.3 nM
apparent KD of MS2 coat protein (input ligand: none): 58.8 nM

GUGUAGAUAGGAUAUGCAUAGAGCUUACGAAAGUAGGCUCUACAUGAGGAUCACCCAUGUAGAAGGGUCUACAC [Dot plot directed A v15] (puzzle: Exclusion 2)
apparent KD of MS2 coat protein [2]: 25 nM

CGUCCACAUGAGGAUCACCCAUGUUAGGAUAUAAACGCCGUAGUCCAAGGACGGGCCUUUAGAAGGAGCGCGGG [Onaredgeso] (puzzle: Exclusion 1)
apparent KD of MS2 coat protein [2]: 12.3 nM

ACAUGAGGAUCACCCAUGUCUGGCUGGUCUGCUCCGGCUGUUGAGGAUAUAGUCCGGUGUUCGCGCUAGAAGGUGAGGGCUGGA [Aenatbe mod 41] (Eterna round: R96, puzzle: Exclusion NG 3)
apparent KD of MS2 coat protein (input ligand: FMN 200 uM): 107 nM
apparent KD of MS2 coat protein [4]: 49.5 nM
apparent KD of MS2 coat protein (input ligand: none): 77.3 nM

AGAUGUAGAUACCGAUCCUACAUGAGGAUCACCCAUGUAGCUAGACGUGCGGGCGGCGCUCGUCAGACUACCAGUAG [salish99_TOv1_r3_094] (puzzle: Sensor v3, turn-off variant 1)
apparent KD of MS2 coat protein [1]: 271 nM
apparent KD of MS2 coat protein [2]: 214 nM
apparent KD of MS2 coat protein [3]: 371 nM

ACCUCACAUGAGGAUCACCCAUGUCAGGAUAUCUAUUAUUGCAGCAUUCCUGUCGCUGAGAGAAGGGACAUUAA [EX1 #28] (Eterna round: R97, puzzle: Exclusion 1)
apparent KD of MS2 coat protein (input ligand: FMN 200 uM): 29.4 nM
apparent KD of MS2 coat protein (input ligand: none): 23.7 nM

GGUUGGCGAGGAUAUACAUGAGGAUCACCCAUGUGAGAGAAAAAAGUGAGGAAGAAAAGUAGAAGGCGCUGACA [salish99_ex3_r3_046] (puzzle: Exclusion 3)
apparent KD of MS2 coat protein [1]: 188 nM
apparent KD of MS2 coat protein [2]: 43.9 nM
apparent KD of MS2 coat protein [3]: 54.1 nM

AUUGUAGUUGUGAGGAUAUCGUUGAUUUUUUGAAACGAGAAGGCACAUGAGGAUCACCCAUGUAAGUUGUAGGU [JR_BMOE4_Sub055] (puzzle: Brourd's mod of Exclusion 4)
apparent KD of MS2 coat protein [2]: 77.6 nM

AAUUAUUUUUGAGGAUAUGGUGGUGAAACACCACCAGAAGGCGAAAUAAACAUGAGGAUCACCCAUGUGAGCCUGAUGCUUAUG [Ex NG1 #48] (Eterna round: R96, puzzle: Exclusion NG 1)
apparent KD of MS2 coat protein [4]: 19.9 nM

UCGCGAAGAGGAUAUACAUAGAAAUAGAUUCAUGUAAAACUACAUGAGGAUCACCCAUGUAGAAGGCUUUGCGU [Mat - Exclusion 2 - JL Mod - D60] (Eterna round: R97, puzzle: Exclusion 2)
apparent KD of MS2 coat protein (input ligand: FMN 200 uM): 108 nM
apparent KD of MS2 coat protein (input ligand: none): 17 nM

UAAUAAAGUGUGAGGAUAUGCUGGUCCUUAGAUCAGCAGAAGGCACAUGAGGAUCACCCAUGUAAUAUAUAAAU [Mat - Exclusion 4 - JL Mod - D56] (Eterna round: R96, puzzle: Brourd's mod of Exclusion 4)
apparent KD of MS2 coat protein [4]: 29 nM

GGUCAACGUGUGAGGAUAUGUCAACCCUGUGGAAAGCAGAAGGCACAUGAGGAUCACCCAUGUAAUAAGAAAAC [Soasois] (Eterna round: R97, puzzle: Brourd's mod of Exclusion 4)
apparent KD of MS2 coat protein (input ligand: FMN 200 uM): 29.9 nM
apparent KD of MS2 coat protein (input ligand: none): 262 nM

GCAGCGUAGUCUAAAUAAGACAUACAUGAGGAUCACCCAUGUCAGGAUAUGGUCUGGAUUACAGGCCAGAAGGGACAAAGCUGC [Eli exng3 - 002] (Eterna round: R96, puzzle: Exclusion NG 3)
apparent KD of MS2 coat protein (input ligand: FMN 200 uM): 21.4 nM
apparent KD of MS2 coat protein [4]: 16.5 nM
apparent KD of MS2 coat protein (input ligand: none): 17.7 nM

GUGUGCAGAGGAUAUACAGAGGAAAAGAAAAGAGAAGGGAGACAUGAGGAUCACCCAUGUAGAAGGCUGAGUGU [Excluse me!! 20 - Jieux - Exclusion 2] (puzzle: Exclusion 2)
apparent KD of MS2 coat protein [2]: 63.4 nM

AAAAGUCCGGAGGAUAUCCACAAGCUCGGGAAAGGAGAAGGCCGGACAUGAGGAUCACCCAUGUGUCUUCUUGC [Rebila] (puzzle: Exclusion 6)
apparent KD of MS2 coat protein [1]: 358 nM
apparent KD of MS2 coat protein [2]: 63 nM
apparent KD of MS2 coat protein [3]: 94.5 nM

CCUCGUAGGGAGGAUAUCCUUUAAAUUUAAGGAGGAGAAGGCUCAACAUGAGGAUCACCCAUGUAAAAUUUAAA [-17, -14.8 kcal, A 36%] (Eterna round: R97, puzzle: Exclusion 6)
apparent KD of MS2 coat protein (input ligand: FMN 200 uM): 109 nM
apparent KD of MS2 coat protein (input ligand: none): 78.7 nM

UUUAAUUUUUUUUUUUUACAAGCUUUUUGCUCGUCUUAUACAUGAGGAUCACCCAUGUAGGUGGGAAGUAAAUUAUC [JMF 57] (puzzle: Sensor v3, turn-off variant 2)
apparent KD of MS2 coat protein [1]: 33 nM
apparent KD of MS2 coat protein [2]: 97.5 nM
apparent KD of MS2 coat protein [3]: 37.5 nM
